What is called Kd is the free concentration of one partner at which half of the binding sites on the other are occupied at equilibrium, for simple one-to-one binding. Broadly, the koff is a measure of how fast the partners let go of each other. As a reminder, the kon is the second-order rate constant of association. A lower kon goes with slower complex formation.

In assay [1] the target is Truncated monomeric His-tagged FcRn (UniProt P55899).
Assay [2] concerns the target FcRn coupled to the resin of the affinity chromatography column (UniProt P55899). Briefly: analytical FcRn affinity chromatography; protein (1 mg/ml, alone or preincubated with cognate Ag) injected on a column with FcRn-coupled resin at pH 5.5 (20 mM MES, 140 mM NaCl), eluted by a linear pH gradient to pH 8.8 (20 mM Tris-HCl, 140 mM NaCl) over 110 min.
In assay [3] the target is VEGF-165 (VEGF-A165, Sino Biological) (UniProt P15692). The experiment in a line: SPR (Biacore T200). The conditions noted are these: pH 5.5 vs 7.4, 0.15 M NaCl, 67 mM phosphate, the same buffer adjusted to pH 7.4 with 1 M NaOH.
Assay [4] deals with Truncated monomeric His-tagged FcRn (UniProt P55899). The source holds these as a separate data set.
In assay [5] the target is anti-NIP IgG1 (human | mouse). The experiment in a line: SPR; Biacore T200; IgG1, Fc or ABTs immobilised (~400 RU) on CM5 by amine coupling; monomeric His-tagged FcRn (2000-1.95 nM) injected at pH 5.5 (67 mM phosphate, 0.15 M NaCl, 0.005% Tween20), 50 μl/min; 1:1 Langmuir binding model. (In general: Surface plasmon resonance follows binding to a sensor surface in real time, without labels.)

For assay [6], the target named is adalimumab (Humira) (human). The description is as above.
A further assay deals with aflibercept (Eylea) (UniProt P17948). The assay is described as above.
For assay [7], the target named is bevacizumab (Avastin) (human). The assay is described as above.
The target in assay [8] is IgG1-derived Fc fragment (human). Described as above.
For assay [9], the target named is infliximab (Remicade) (human). The description is as above.
The target of a further assay is etanercept (Enbrel) (UniProt P20333). Described as above.

Chain of VEGF-165 (VEGF-A165, Sino Biological) (P15692 whole entry, the tested form may be a part): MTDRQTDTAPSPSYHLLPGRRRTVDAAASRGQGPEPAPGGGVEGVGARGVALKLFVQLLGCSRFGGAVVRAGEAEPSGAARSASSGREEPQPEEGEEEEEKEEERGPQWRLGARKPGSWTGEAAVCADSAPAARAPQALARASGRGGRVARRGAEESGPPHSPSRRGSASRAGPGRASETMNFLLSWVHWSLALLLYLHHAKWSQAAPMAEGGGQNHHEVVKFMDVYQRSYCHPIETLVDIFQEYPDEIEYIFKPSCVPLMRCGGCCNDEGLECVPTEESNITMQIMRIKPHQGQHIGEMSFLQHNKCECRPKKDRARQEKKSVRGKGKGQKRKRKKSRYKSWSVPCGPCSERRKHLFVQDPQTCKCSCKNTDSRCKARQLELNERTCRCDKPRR
Chain of aflibercept (Eylea) (from UniProt P17948 129-229; P35968 1-764) (Fc fusion) (P17948 other isoform, or with tags, fused parts or gaps): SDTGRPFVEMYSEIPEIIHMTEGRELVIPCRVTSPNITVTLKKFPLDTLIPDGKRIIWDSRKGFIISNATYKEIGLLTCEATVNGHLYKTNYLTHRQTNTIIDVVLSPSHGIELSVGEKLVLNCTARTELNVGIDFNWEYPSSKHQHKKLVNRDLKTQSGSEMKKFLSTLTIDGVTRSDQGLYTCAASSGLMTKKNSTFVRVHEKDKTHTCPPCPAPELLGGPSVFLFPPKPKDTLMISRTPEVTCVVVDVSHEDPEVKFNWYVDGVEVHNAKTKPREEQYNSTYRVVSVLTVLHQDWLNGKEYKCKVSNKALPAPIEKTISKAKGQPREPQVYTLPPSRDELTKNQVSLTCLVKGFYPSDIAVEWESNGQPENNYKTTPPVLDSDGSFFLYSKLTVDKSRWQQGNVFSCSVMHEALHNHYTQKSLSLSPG

“anti-NIP IgG1 Fc-engineered variant M252Y/S254T/T256E/H433K/N434F (antibody)”: the cellular uptake in HERA (HMEC-1-FcRn cells) after 2 h incubation, relative to non-engineered anti-NIP IgG1 in [1] came out at 15 fold.

With adalimumab (Humira) (antibody), the elution peak pH in [2] is 7.21 pH.

As to “Aflibercept (Eylea), VEGFR1 D2-VEGFR2 D3-IgG1 Fc fusion”, the “on-rate (sensorgram comparison), fold change pH 5.5 over pH 7.4” value in [3] is “acidic pH enhanced the on-rate more than 5-fold”.

On to infliximab (Remicade) (antibody), for which, in assay [2], the elution peak pH was determined as 7.15 pH.

Take Bevacizumab (Avastin): in assay [3], the “on-rate (sensorgram comparison), fold change pH 5.5 over pH 7.4” value is “acidic pH enhanced the on-rate more than 5-fold”.

With “IgG1-derived Fc fragment (domain or fragment)”, in assay [2], the elution peak pH was found to be 7.13 pH. In assay [4], this substance returned a reduction of the recycling of 400 nM anti-NIP IgG1 (m4) by titrated Fc fragment (6400-1 nM) in HERA, HMEC-1-FcRn cells preloaded with IVIg, uptake at pH 6.0 of 32.9 nM.

With “aflibercept (Eylea) (from UniProt P17948 129-229; P35968 1-764) (Fc fusion)”, the elution peak pH in [2] was 7.01 pH.

As for bevacizumab (Avastin) (antibody), the elution peak pH in assay [2] came out at 7.2 pH.

Turning to “etanercept (Enbrel) (from UniProt P20333 23-257) (Fc fusion)”, in assay [2], the elution peak pH worked out at 6.88 pH.

On to “Truncated monomeric His-tagged FcRn (from UniProt P55899 24-365) (receptor)”, for which the Kd in assay [5] came out at 330 nM; in [6], 430 nM; with aflibercept (Eylea), 350 nM; in [7], 380 nM; in [8], 230 nM; in [9], 310 nM. The equilibrium dissociation constant (Kd) with etanercept (Enbrel) was determined as 380 nM. The koff in assay [6] came out at 0.001 s⁻¹; in the assay with aflibercept (Eylea), 0.001 s⁻¹; in assay [7], 0.001 s⁻¹; in assay [9] it was 0.002 s⁻¹; with etanercept (Enbrel), 0.001 s⁻¹. Moreover, the kon in assay [6] was 42000 M⁻¹ s⁻¹; with aflibercept (Eylea) it was 30000 M⁻¹ s⁻¹; in assay [7], 32000 M⁻¹ s⁻¹; in [9] it was 35000 M⁻¹ s⁻¹; with etanercept (Enbrel) it was 31000 M⁻¹ s⁻¹.
